The target in series [1] is T1, ArcA-P (Shewanella oneidensis MR-1) (UniProt Q8EAB9).
T1 sequence: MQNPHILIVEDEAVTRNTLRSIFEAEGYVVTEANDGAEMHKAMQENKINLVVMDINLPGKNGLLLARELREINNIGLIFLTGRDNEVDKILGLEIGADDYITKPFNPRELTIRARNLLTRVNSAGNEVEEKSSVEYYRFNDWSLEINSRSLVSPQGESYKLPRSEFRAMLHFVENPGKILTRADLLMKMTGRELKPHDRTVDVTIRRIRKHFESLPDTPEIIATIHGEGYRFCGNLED
Briefly: MST. The following applies: EMSA: 2 mM EDTA, 20 mM KCl, 0.5 mM DTT, 4% Ficoll-400, pH 8.0, 2 ug poly(dI-dC), 10 nM probe, 10 uM cAMP for Crp; MST: 1x PBS pH 7.4, 0.05% Tween-20, 25 C. (In general: In EMSA bound probe runs differently from free probe, usually more slowly.)

For series [2], the target named is T2, MBP-Crp-His6 (Shewanella oneidensis MR-1) (UniProt Q8EJ49).
T2 sequence: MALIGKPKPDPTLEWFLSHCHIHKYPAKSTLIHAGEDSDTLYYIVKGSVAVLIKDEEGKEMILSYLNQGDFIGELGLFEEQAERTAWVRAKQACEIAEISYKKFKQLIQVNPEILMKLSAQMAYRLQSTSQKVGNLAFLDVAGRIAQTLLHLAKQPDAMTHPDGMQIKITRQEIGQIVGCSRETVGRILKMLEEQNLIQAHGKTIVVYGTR
Briefly: MST. The following applies: EMSA: 2 mM EDTA, 20 mM KCl, 0.5 mM DTT, 4% Ficoll-400, pH 8.0, 2 ug poly(dI-dC), 10 nM probe, 10 uM cAMP for Crp; MST: 1x PBS pH 7.4, 0.05% Tween-20, 25 C.

The target of series [3] is T1, ArcA-P (Shewanella oneidensis MR-1). Nature of the series: EMSA. As to conditions: EMSA: 2 mM EDTA, 20 mM KCl, 0.5 mM DTT, 4% Ficoll-400, pH 8.0, 2 ug poly(dI-dC), 10 nM probe, 10 uM cAMP for Crp; MST: 1x PBS pH 7.4, 0.05% Tween-20, 25 C.
For series [4], the target named is T3, MBP-Crp (Shewanella oneidensis MR-1) (UniProt Q8EJ49).
T3 sequence: T2 sequence
Briefly: EMSA. The following applies: EMSA: 2 mM EDTA, 20 mM KCl, 0.5 mM DTT, 4% Ficoll-400, pH 8.0, 2 ug poly(dI-dC), 10 nM probe, 10 uM cAMP for Crp; MST: 1x PBS pH 7.4, 0.05% Tween-20, 25 C.

Series [5] concerns ArcA-P (Shewanella oneidensis MR-1). Briefly: MST. As to conditions: phosphorylated ArcA; EMSA: 2 mM EDTA, 20 mM KCl, 0.5 mM DTT, 4% Ficoll-400, pH 8.0, 2 ug poly(dI-dC), 10 nM probe, 10 uM cAMP for Crp; MST: 1x PBS pH 7.4, 0.05% Tween-20, 25 C.
For series [6], the system named is MBP-Crp-His6 (Shewanella oneidensis MR-1). Briefly: MST. As to conditions: EMSA: 2 mM EDTA, 20 mM KCl, 0.5 mM DTT, 4% Ficoll-400, pH 8.0, 2 ug poly(dI-dC), 10 nM probe, 10 uM cAMP for Crp; MST: 1x PBS pH 7.4, 0.05% Tween-20, 25 C.

With “AATAACAACCTCAACAAACTCATGTAAATGGCTAAGTTATACCACGGAACAGATAAGAGATAACTACTTTAGTCTAACTAAACAGGCAATTTAGCATTAAAGATATTTCAGAAACAATAAACCACACGATAAAATTTGAGCAGCAAAAAGGGGTAGTGTTCATAATTCTGTGTCATTTCAGTAAAATATTCAAAAACAGGAATGACAC (double strand) [ndh promoter probe (Pndh)]”, the binding result in series [1], in series [2], in series [3] and in series [4] was “binds” in each case.
In the case of nqr1 promoter probe (PnqrA1), the Kd in series [5] is 560 nM; in series [6] it was 120 nM.
Regarding nqr2 promoter probe (PnqrA2), the results for the Kd in series [5] and in series [6] were 680 nM and 2020 nM, respectively.

Usually Kd stands for the equilibrium constant for the complex coming apart.

For the origin of these results see publication PMC12210985.
